Tests used:
Experiment in all cases: co-IP with anti-FLAG, mass spectrometry; lysate of cells with N-FLAG B3GNT2
RARS = target: T1, RARS (human, UniProt P54136 1-660)
T1 construct: also called NP_002878.2
T1 sequence (looked up): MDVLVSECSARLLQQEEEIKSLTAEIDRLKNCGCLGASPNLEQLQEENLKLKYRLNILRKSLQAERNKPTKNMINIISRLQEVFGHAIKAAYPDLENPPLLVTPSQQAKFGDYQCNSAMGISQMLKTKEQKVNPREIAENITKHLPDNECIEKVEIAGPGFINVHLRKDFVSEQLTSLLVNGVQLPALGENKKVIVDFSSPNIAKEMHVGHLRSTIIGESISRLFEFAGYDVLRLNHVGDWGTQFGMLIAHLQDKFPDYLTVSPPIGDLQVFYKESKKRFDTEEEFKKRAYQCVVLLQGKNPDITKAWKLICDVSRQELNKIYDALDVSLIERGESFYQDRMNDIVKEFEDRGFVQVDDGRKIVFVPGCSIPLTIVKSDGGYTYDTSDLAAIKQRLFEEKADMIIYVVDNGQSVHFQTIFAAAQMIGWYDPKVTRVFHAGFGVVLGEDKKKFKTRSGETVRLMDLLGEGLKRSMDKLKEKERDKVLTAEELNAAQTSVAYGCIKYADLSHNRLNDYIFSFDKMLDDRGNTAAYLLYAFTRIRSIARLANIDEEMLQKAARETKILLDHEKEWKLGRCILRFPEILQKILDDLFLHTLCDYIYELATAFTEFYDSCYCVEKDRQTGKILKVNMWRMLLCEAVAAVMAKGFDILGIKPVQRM

PJA2 = target: T2, PJA2 (human, UniProt O43164 2-708)
T2 construct: also called NP_055634.3
T2 sequence (looked up): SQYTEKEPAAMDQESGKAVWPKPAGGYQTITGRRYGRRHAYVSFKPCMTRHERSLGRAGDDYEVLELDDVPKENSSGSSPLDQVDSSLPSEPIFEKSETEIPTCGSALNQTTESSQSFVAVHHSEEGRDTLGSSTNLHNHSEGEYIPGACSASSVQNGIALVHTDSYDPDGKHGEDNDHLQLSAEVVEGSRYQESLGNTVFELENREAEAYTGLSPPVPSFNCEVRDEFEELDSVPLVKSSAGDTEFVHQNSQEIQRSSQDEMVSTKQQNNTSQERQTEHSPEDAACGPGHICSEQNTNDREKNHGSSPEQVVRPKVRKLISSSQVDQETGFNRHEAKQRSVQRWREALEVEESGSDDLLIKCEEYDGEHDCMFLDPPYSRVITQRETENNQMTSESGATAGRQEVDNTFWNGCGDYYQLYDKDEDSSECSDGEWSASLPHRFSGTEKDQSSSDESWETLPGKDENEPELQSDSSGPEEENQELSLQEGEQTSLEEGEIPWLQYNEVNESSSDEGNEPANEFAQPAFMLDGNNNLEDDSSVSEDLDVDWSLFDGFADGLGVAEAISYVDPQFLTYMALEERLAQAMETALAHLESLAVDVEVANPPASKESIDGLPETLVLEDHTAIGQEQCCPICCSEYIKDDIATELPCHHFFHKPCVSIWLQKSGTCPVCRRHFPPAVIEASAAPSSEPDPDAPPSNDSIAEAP

CCT2 = target: T3, CCT2 (human, UniProt P78371-2 1-488, limits assumed)
T3 construct: also called NP_001185771.1 (+1)
T3 sequence (looked up): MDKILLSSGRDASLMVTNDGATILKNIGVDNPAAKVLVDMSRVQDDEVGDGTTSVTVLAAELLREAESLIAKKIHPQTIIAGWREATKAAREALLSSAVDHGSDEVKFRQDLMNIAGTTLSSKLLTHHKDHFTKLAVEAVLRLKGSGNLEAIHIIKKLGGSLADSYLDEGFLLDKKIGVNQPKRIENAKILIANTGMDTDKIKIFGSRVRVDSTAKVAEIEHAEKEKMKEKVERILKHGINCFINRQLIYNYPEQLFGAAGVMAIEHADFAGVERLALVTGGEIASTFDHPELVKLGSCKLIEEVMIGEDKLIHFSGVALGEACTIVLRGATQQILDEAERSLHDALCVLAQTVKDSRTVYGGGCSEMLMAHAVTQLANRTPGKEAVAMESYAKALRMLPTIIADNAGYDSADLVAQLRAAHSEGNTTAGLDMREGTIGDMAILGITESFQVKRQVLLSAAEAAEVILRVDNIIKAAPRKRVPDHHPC

SLC27A4 = target: T4, SLC27A4 (human, UniProt Q6P1M0 1-643)
T4 construct: also called NP_005085.2
T4 sequence (Q6P1M0 whole entry): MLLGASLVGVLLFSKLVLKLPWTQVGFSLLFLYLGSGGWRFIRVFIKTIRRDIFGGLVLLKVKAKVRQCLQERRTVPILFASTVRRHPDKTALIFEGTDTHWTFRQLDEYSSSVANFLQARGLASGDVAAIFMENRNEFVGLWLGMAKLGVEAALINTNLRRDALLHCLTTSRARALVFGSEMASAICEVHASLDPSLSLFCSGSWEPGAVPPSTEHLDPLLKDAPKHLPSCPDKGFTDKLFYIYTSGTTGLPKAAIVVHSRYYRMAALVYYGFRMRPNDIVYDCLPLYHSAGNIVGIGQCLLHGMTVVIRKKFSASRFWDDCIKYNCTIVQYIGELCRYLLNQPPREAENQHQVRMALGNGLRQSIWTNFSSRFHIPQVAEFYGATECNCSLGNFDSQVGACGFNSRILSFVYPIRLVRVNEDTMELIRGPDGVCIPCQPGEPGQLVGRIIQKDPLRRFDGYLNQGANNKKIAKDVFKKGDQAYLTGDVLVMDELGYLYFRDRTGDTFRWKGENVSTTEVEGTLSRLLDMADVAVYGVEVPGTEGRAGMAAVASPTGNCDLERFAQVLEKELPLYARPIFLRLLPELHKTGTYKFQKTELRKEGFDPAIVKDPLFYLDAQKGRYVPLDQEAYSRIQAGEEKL

GAPDH = target: T5, GAPDH (human, UniProt P04406 2-335, limits assumed)
T5 construct: also called NP_001344872.1 (+1)
T5 sequence (P04406 2-335 limits assumed): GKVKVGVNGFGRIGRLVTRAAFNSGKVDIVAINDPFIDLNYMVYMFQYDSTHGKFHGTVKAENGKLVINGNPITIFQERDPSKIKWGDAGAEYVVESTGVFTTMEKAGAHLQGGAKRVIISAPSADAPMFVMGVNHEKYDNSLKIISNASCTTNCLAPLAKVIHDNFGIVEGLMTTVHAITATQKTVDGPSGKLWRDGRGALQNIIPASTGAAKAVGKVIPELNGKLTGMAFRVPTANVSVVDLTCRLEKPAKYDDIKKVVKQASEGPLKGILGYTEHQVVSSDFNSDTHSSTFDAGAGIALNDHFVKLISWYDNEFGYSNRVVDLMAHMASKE

B1: N-terminal FLAG tagged B3GNT2 (enzyme, human, UniProt Q9NY97 1-397, looked up)
chain: MSVGRRRIKLLGILMMANVFIYFIMEVSKSSSQEKNGKGEVIIPKEKFWKISTPPEAYWNREQEKLNRQYNPILSMLTNQTGEAGRLSNISHLNYCEPDLRVTSVVTGFNNLPDRFKDFLLYLRCRNYSLLIDQPDKCAKKPFLLLAIKSLTPHFARRQAIRESWGQESNAGNQTVVRVFLLGQTPPEDNHPDLSDMLKFESEKHQDILMWNYRDTFFNLSLKEVLFLRWVSTSCPDTEFVFKGDDDVFVNTHHILNYLNSLSKTKAKDLFIGDVIHNAGPHRDKKLKYYIPEVVYSGLYPPYAGGGGFLYSGHLALRLYHITDQVHLYPIDDVYTGMCLQKLGLVPEKHKGFRTFDIEEKNKNNICSYVDLMLVHSRKPQEMIDIWSQLQSAHLKC
notes: Bait of the co-IP; pulled down with mouse anti-FLAG (Millipore Sigma F3165) from cell lysate; also called N-FLAG B3GNT2; N-term FLAG; not shown: N-terminal FLAG tag
- co-IP mass spectrometry count (RARS): 0
- co-IP mass spectrometry count (PJA2): 0
- co-IP mass spectrometry count (CCT2): 0
- co-IP mass spectrometry count (SLC27A4): 0
- co-IP mass spectrometry count (GAPDH): 18

Reference: patent publication US20240261333A1 (published 2024)
